# Test results: the RNAGym collection of RNA variant scans (doi:10.1073/pnas.2313332121)
# This sample holds only a part of the variants without activity.
# B1: TPR 5TU (parent)
# chain: GGAUCUUCUCGAUCUAACAAAAAAGACAAAUCUGCCACAAAGCUUGAGAGCAUCUUCGGAUGCAGAGGCGGCAGCCUUCGGUGGCGCGAUAGCGCCAACGUUCUCAACUAUGACACGCAAAACGCGUGCUCCGUUGAAUGGAGUUUAUCAUG
# Variants of: B1
# Experiment: polymerase ribozyme fitness, log enrichment relative to wild type (log ratio); higher = more active; in vitro selection for triplet polymerase activity
# Method in brief: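 Mutant libraries of each subunit of a heterodimeric triplet polymerase ribozyme were built by PCR and transcribed. Each library went through one round of in vitro selection in triplicate: annealing with biotinylated primer, partner subunit and triplets, frozen incubation at −7 °C, gel excision of extended constructs, streptavidin-bead capture and RT-PCR. Input and output libraries were Illumina-sequenced; only genotypes with ≥10 input reads and ≥1 read per output were kept. Fitness is log2(genotype enrichment/wild-type enrichment), using inverse-variance-weighted replicate averages.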
row,Variant,polymerase ribozyme fitness (log ratio)
1,U13G A37U C43U A52C A73C G84C U109C G140A,≤ -4.2
2,C14A A41C C76U G84U,-2.89
3,C14A A66U G68A C72G G92U,≤ -4.2
4,U13G G83C C99G C118G C123U A137G,≤ -4.2
5,C14A C38G G81U G94U,-3.15
6,C14A G58A A89U G94U,-3.75
7,C14A A23C A66U C93A G128U U151A,≤ -4.2
8,C14A C38A G42C U56G G67C G84A C108U U127C,≤ -4.2
9,U13G G65C G83A,≤ -4.2
10,U13G C96U A97U A137U,≤ -4.2
11,U13G G83U C105U G117C U148A,≤ -4.2
12,U13G A26U C32G U33A C54G A66U C118A U144A,≤ -4.2
13,C14A U90G A137C,≤ -4.2
14,C14A A19U U56G G86U C116G C125U G133A G143C,≤ -4.2
15,C14A G58A G68A U78A G94A,≤ -4.2
16,C14A C27G C32G U77C G84A,≤ -4.2
17,C14A A41U C76G C87A G92C U144G,≤ -4.2
18,U13G A40U C96G A121G,-2.57
19,C14A U15C A19C A20C U45C G86U,-4.11
20,C14A A19C C93U C125A,-3.52
21,C14A A21U G59U G133C,-3.06

row,Variant,polymerase ribozyme fitness (log ratio)
1,C14A C93U,-2.33
2,C14A A19G A26U C79A G83U A119C,≤ -4.2
3,C14A A26U G46A C85U C105A A113G C114A G128A A147G,≤ -4.2
4,C14A A60G C85G C118G C132U,-3.89
5,C14A A49G C54U G71A U77C G86U G143A,≤ -4.2
6,C14A A29C C96G A150U,≤ -4.2
7,C14A A16U G83A C93G C95U A98U C108G,≤ -4.2
8,C14A A17C C36A U44A U45A C54A C85G G88U C103G A110C,≤ -4.2
9,U13G A26U C96G A120G,≤ -4.2
10,U13G C35A G50A C54A C76G C87G A89U A107C G141C,≤ -4.2
11,U13G U31C C96A,-0.864
12,U13G U56A G86U C131U,-4.16
13,C14A A39U A49C C57A C79G G86U,≤ -4.2
14,C14A A16G A20G U56A U82G A106G,-3.04
15,C14A A37U C75G G94A A113G C114G C149A,≤ -4.2
16,C14A U135A A142C,-3.9
17,U13G G136A U144C,-2.04
18,C14A G80A C85U C103G G117U G124U A142G,≤ -4.2
19,C14A A16C A28G A60G C79G A91G U109A,≤ -4.2
20,C14A U55A,-1.9
21,U13G C96A,-0.681

row,Variant,polymerase ribozyme fitness (log ratio)
1,C14A C125A,-1.75
2,C14A A39C G70A U130G,≤ -4.2
3,C14A C76A A89C U90G C95U A107U,≤ -4.2
4,U13G G94C C114G G143A,≤ -4.2
5,C14A U102G,≤ -4.2
6,C14A G62U G94A,-2.9
7,C14A U44A G81A C85A U102G,≤ -4.2
8,U13G G80C G94U U134A,≤ -4.2
9,U13G G81U G86A C105U,-3.74
10,C14A G59C U78G C96U,≤ -4.2
11,C14A A39U A73G C95G,≤ -4.2
12,C14A A16C G46A G67C C85A C95A,≤ -4.2
13,C14A C38U,-1.31
14,C14A A64U C93U G141A,≤ -4.2
15,C14A A20C C96U,-1.32
16,C14A C36U U45C C87U C105A G133U,≤ -4.2
17,C14A C54U,-2.07
18,C14A C54A,-3.55
19,U13G C85U C99U G128C C132U,≤ -4.2
20,C14A A16C A19U U82A G83U C149U,-3.89
21,U13G A41C U55G G94C C116A G143U U151G,≤ -4.2

row,Variant,polymerase ribozyme fitness (log ratio)
1,U13G A40C C96G A119G,-1.98
2,C14A A17C A41C C96U A115U G141A,≤ -4.2
3,C14A G25A U53G G84C C87U G117C G124A,≤ -4.2
4,C14A C54U G83U C95U U111G U134G,≤ -4.2
5,U13G G141C,-1.88
6,U13G A49U,-2.21
7,C14A A28U G46C U61A C95U U139C A150C,≤ -4.2
8,U13G A41C C96U A107U C131A G133A U146C,≤ -4.2
9,U13G A47G U55A C87U C96U U139G,≤ -4.2
10,C14A G80C G86U C118U,≤ -4.2
11,U13G C14G U31A A41C G86A U90G G100A C131A,≤ -4.2
12,U13G G84A G143U,-3.44
13,U13G G92C,-2.36
14,C14A A17U A40U C57G G84U C96A A121C,≤ -4.2
15,C14A A26U A29G C57G C93A G141C,≤ -4.2
16,C14A A52G C85U A113C,-4.15
17,C14A A37U A52G G83A G84A A115U,≤ -4.2
18,U13G A26G U31G C51G G88C,≤ -4.2
19,U13G C38A C93G C116G A122G,≤ -4.2
20,C14A A29U C96A U101G G133C U144C,≤ -4.2
